Source: the supplement of paper PMC12042874
± gives the uncertainty stated by the source.

Assay: amyloid nucleation score (Sup35N fusion, yeast selection) (log enrichment); library NNK3; higher = more nucleation; inactive = no reads after selection
Procedure, shortened: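 Using DiMSum, nucleation scores were taken as the log enrichment of output over input reads, centred on the mode score of non-aggregating sequences. The input and output reads came from Illumina sequencing of plasmid inserts, with sequences under 100 input reads excluded. The yeast were psi-negative, expressed Sup35N fused to peptides of 20 random codons, were induced with 100 μM copper sulfate for 24 hours, and were grown 7 days at 30°C on medium lacking adenine and uracil.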
For GRLIPREGT, the amyloid nucleation score was “inactive”.
For HSCFCQCVSARYCDYSSVTR, the amyloid nucleation score was “inactive”.
For VDTYHTFVVVLH, the amyloid nucleation score was “inactive”.
GKDSGDCTRIRLGV showed an amyloid nucleation score of 1.2 ± 0.14.
For MLGVSYCRQVVYKENSYDFR, the amyloid nucleation score was “inactive”.
For SAVKWC, the amyloid nucleation score was “inactive”.
In the case of ISGTFACQNSTFFSGYREAI, the amyloid nucleation score is reported as “inactive”.
With SSTCTDL the amyloid nucleation score was “inactive”.
For SSLLANRYVWLDKLRHWHWR, the amyloid nucleation score was “inactive”.
In the case of IDTISMG, the amyloid nucleation score is reported as “inactive”.
For NFCLMLDVWINTFRDIIYWG, the amyloid nucleation score was “inactive”.
Substance VNIRLMVKIRFDSVLRILPY has an amyloid nucleation score of 0.509 ± 0.31.
For WYSNYCMIDRHGVFEVVSCM, the amyloid nucleation score was “inactive”.
Work on MLNVINVYHVSSCGLRGNFE yielded an amyloid nucleation score of 2.63 ± 0.077.
For DRVGRRLIGLRLAQLLGERF, the amyloid nucleation score was “inactive”.
PLLLQWHHYNLLGRS showed an amyloid nucleation score of 0.193 ± 0.69.
WFYGRLLPVPVLWIIRLKKG showed an amyloid nucleation score of 0.01 ± 0.59.
With RYFTLISYVVVVEVSLEKPW the amyloid nucleation score was “inactive”.
With VRGGHSTTGI the amyloid nucleation score was “inactive”.
In the case of MNWLSTTGECSILDISQ, the amyloid nucleation score is reported as “inactive”.
Substance ALFSKKFI has an amyloid nucleation score of 1.83 ± 0.059.
TVNYYRQNSIIMFESYNECC showed an amyloid nucleation score of 0.579 ± 0.17.
For EVCLGVSGRHGANSVVIDWT, the amyloid nucleation score was “inactive”.
For VTMFLGQWCSHSIVAMCIEG, the amyloid nucleation score was “inactive”.
For SQPDCFNICDLHGRSSCVSK, the amyloid nucleation score was “inactive”.
For PCPLGPYLGYFTETSYAHGM, the amyloid nucleation score was “inactive”.
For LKIWGRFITGETV, the amyloid nucleation score was “inactive”.
Substance MVTLKQYLYSG has an amyloid nucleation score of 1.05 ± 0.2.
In the case of RHRFSTSGRYFVSIRLVSSF, the amyloid nucleation score is reported as “inactive”.
With FSLDVDDGVFS the amyloid nucleation score was “inactive”.
For VCVRKLELGDCLKCG, the amyloid nucleation score was “inactive”.
With QCKHSPGWAWRNSTNHCIAS the amyloid nucleation score was “inactive”.
Substance ILVVGALDLLCGVLTEYSCQ has an amyloid nucleation score of 1.1 ± 0.1.
For SFTRCWLNKREMKMYTFSAR, the amyloid nucleation score was “inactive”.
Work on TERVCVCVTFVLW yielded an amyloid nucleation score of 1.23 ± 0.16.
In the case of SSIGVGSFCSVRCLYDHDTS, the amyloid nucleation score is reported as “inactive”.
For DPTILSKVMLMEDTVKAREL, the amyloid nucleation score was “inactive”.
For CSMLASMWTTIRYLLLLEVA, the amyloid nucleation score was 1.49 ± 0.09.
In the case of SWMVQLVNTGVRWLVLANDA, the amyloid nucleation score is reported as “inactive”.
With LSNIICSCQLCWACPSLSVM the amyloid nucleation score was 2.47 ± 0.057.
In the case of FDVFISENNDAGSHNVEMYQ, the amyloid nucleation score is reported as “inactive”.
For MVNAWLNRYKMWNVFIALNR, the amyloid nucleation score was “inactive”.
In the case of VARELGLCYVWAGSRGVSRV, the amyloid nucleation score is reported as -0.323 ± 1.8.
With SYYFMGHLVFSVQTCIYTQG the amyloid nucleation score was 0.004 ± 0.26.
For SLWIIERCILDHQYGSFRRQ, the amyloid nucleation score was 1.65 ± 0.1.
For VFNRSCINFKRYGSA, the amyloid nucleation score was “inactive”.
For IHNGKDTLAVVWYGFLIMFW, the amyloid nucleation score was “inactive”.
With FDLWFIRIGV the amyloid nucleation score was -0.221 ± 0.46.
With VIWLGRRCTFLHKPTSRGQW the amyloid nucleation score was 0.021 ± 0.6.
For WSPGESNTLVGVCIEDALRS, the amyloid nucleation score was “inactive”.
In the case of SRFRGAI, the amyloid nucleation score is reported as “inactive”.
With QTAIIANPSVGGWLSNSHVR the amyloid nucleation score was “inactive”.
In the case of LQMYWIIV, the amyloid nucleation score is reported as “inactive”.
In the case of TSLVKRSALVFYTGTLIYPF, the amyloid nucleation score is reported as “inactive”.
With MVVLRAVEQLGVRNNDYHS the amyloid nucleation score was “inactive”.
For VVYDVTVKKSLDIRFPLRIP, the amyloid nucleation score was “inactive”.
For VFPLSAY, the amyloid nucleation score was “inactive”.
With EILRMCH the amyloid nucleation score was “inactive”.
With CTNKSSVYEFCYCVADMANV the amyloid nucleation score was “inactive”.
With KFGVLRLVFSTLVSTLSRMV the amyloid nucleation score was “inactive”.
With CYLISILPLGLFIDSLAWVT the amyloid nucleation score was “inactive”.
MWSHLVCCNRQPENLYG gave an amyloid nucleation score of 1.32 ± 0.16.
For CISQVVVGSTHTAIGARAFA, the amyloid nucleation score was “inactive”.
With GVWKEHVTRAAVVSWKEGVN the amyloid nucleation score was “inactive”.
With ASLTGNFYTGWRFLALATMC the amyloid nucleation score was “inactive”.
In the case of YFVSVGRNKELRGLFTRLVV, the amyloid nucleation score is reported as “inactive”.
In the case of VSYCAWSFEG, the amyloid nucleation score is reported as “inactive”.
In the case of TTVDDNFVHRRPM, the amyloid nucleation score is reported as “inactive”.
With WRNMTI the amyloid nucleation score was “inactive”.
For MWWAINCWSSKFHIYSIDTY, the amyloid nucleation score was “inactive”.
Work on SVLIFTMKDFLGEIFINVPT yielded an amyloid nucleation score of 1.89 ± 0.092.
For FYRSFSPSYNLYMYGIYDR, the amyloid nucleation score was 2.77 ± 0.067.
With RNFARCRFNPPMTHHSFFNT the amyloid nucleation score was “inactive”.
In the case of IVDHNIMI, the amyloid nucleation score is reported as 0.718 ± 0.3.
For VLRAGELLF, the amyloid nucleation score was “inactive”.
With ESYTWL the amyloid nucleation score was “inactive”.
In the case of TFWVFIAQKRCSGGKYGCMC, the amyloid nucleation score is reported as -0.097 ± 0.69.
With LFNYLFLVP the amyloid nucleation score was “inactive”.
For YGYFHTRGYVAFE, the amyloid nucleation score was “inactive”.
In the case of LIFGYPVGKFTMMGLTSMWS, the amyloid nucleation score is reported as “inactive”.
For NLRSLFKPWPVVPAYMRFME, the amyloid nucleation score was “inactive”.
For NHMLCCTCDFHYCVRGWKSF, the amyloid nucleation score was 0.64 ± 0.33.
With TVICISHTFSGHCLSSYEVW the amyloid nucleation score was “inactive”.
In the case of LKCSLLYCRCRPGYQIAGT, the amyloid nucleation score is reported as “inactive”.
With HSLVVNSSSERRYG the amyloid nucleation score was “inactive”.
In the case of SLMSSRSCVTRTLLARQVYL, the amyloid nucleation score is reported as “inactive”.
For LICAW, the amyloid nucleation score was “inactive”.
Work on VMSSMWLAGQTWLSYNCICD yielded an amyloid nucleation score of 2.35 ± 0.075.
In the case of VDLYV, the amyloid nucleation score is reported as “inactive”.
NLNGLMRLQIAVLFQ showed an amyloid nucleation score of 0.577 ± 0.21.
For TRVDGTYKYRLFDLCDAIKF, the amyloid nucleation score was “inactive”.
With VIGTGN the amyloid nucleation score was “inactive”.
With FLLVYWLVLVFPIVGNLMPE the amyloid nucleation score was “inactive”.
In the case of MNGIGNYLDTYMGSCHVEDM, the amyloid nucleation score is reported as “inactive”.
For RLGLSAMSFCLCDSTSIATY, the amyloid nucleation score was “inactive”.
With RYLLPQIPLLYKWKLLILHG the amyloid nucleation score was “inactive”.
For CSALC, the amyloid nucleation score was “inactive”.
For ICYTMST, the amyloid nucleation score was “inactive”.
Substance DKNNLIFFLRAVCYFSSERT has an amyloid nucleation score of 1.08 ± 0.11.
For TTHVILCLCNL, the amyloid nucleation score was 3.07 ± 0.073.
With FWGWLARTNLKILSILFNLI the amyloid nucleation score was “inactive”.
In the case of FFMEIKYGWKV, the amyloid nucleation score is reported as 0.898 ± 0.12.
SRCNVYKKVVAYVLRRLTPE showed an amyloid nucleation score of 0.166 ± 0.66.
GISRYFYSMCETWMNCHSGV showed an amyloid nucleation score of 0.793 ± 0.28.
For FDSDRCIMCLTHLWILWGLR, the amyloid nucleation score was “inactive”.
With RAGVKNG the amyloid nucleation score was “inactive”.
For VRLYADNNLSAITKLLCPKN, the amyloid nucleation score was “inactive”.
For HCVRVASWGT, the amyloid nucleation score was “inactive”.
With FMGADVAQRMFYKSANGCEW the amyloid nucleation score was “inactive”.
For KKFGSYEWSRI, the amyloid nucleation score was “inactive”.
For WILSNRWKFHLVGLVIAFV, the amyloid nucleation score was “inactive”.
Work on NIVLFGKRVNFFYLTNDVVK yielded an amyloid nucleation score of 1.97 ± 0.067.
RLFFNPVVVVIWPGVRNVGV gave an amyloid nucleation score of 0.189 ± 0.66.
In the case of LYVHFSILCTFGWSVPNQEG, the amyloid nucleation score is reported as “inactive”.
With LFLGLIVVGTVLNELSMTNA the amyloid nucleation score was “inactive”.
In the case of YFCVCSCVDFGYASYRGYAA, the amyloid nucleation score is reported as “inactive”.
In the case of TISSSLKRMWDIVFSLCNNI, the amyloid nucleation score is reported as “inactive”.
HFIASRGSGNLKVAFTDSQT showed an amyloid nucleation score of 1.23 ± 0.1.
Substance VLGYYAKGDRSSWSRGYSY has an amyloid nucleation score of 0.194 ± 0.87.
For WVSFKDLSELCLGCFRMPRF, the amyloid nucleation score was “inactive”.
NCLSPTCRSVL gave an amyloid nucleation score of 2.07 ± 0.097.
In the case of DGRCKMLPVESGGAC, the amyloid nucleation score is reported as “inactive”.
For SPFFYFFWPGFR, the amyloid nucleation score was “inactive”.
With SCVAVSI the amyloid nucleation score was “inactive”.
In the case of RMDWWYSGCLFMRYPALTAL, the amyloid nucleation score is reported as “inactive”.
In the case of SGCERAWMAVCENRSSCILG, the amyloid nucleation score is reported as “inactive”.
With FLFILPDNGPRWCSYTVGNV the amyloid nucleation score was “inactive”.
For MMSDNDISLRRYFVQCLKSS, the amyloid nucleation score was “inactive”.
Substance LIVRLDPIFKKIKNK has an amyloid nucleation score of 1.27 ± 0.11.
In the case of YLINPVEVD, the amyloid nucleation score is reported as “inactive”.
For RAGDNIFWTIAKCTRNTHVM, the amyloid nucleation score was “inactive”.
For SDGFLSADYRFFMMLRYRLE, the amyloid nucleation score was “inactive”.
With TCYFVYTRFFWGDRESKSTF the amyloid nucleation score was “inactive”.
For INVPLALLSYGV, the amyloid nucleation score was “inactive”.
In the case of DRILAYKTYLGNYLLVVLYN, the amyloid nucleation score is reported as “inactive”.
For NSRARSSYRIMNWWLLFDMT, the amyloid nucleation score was “inactive”.
For RTVDSH, the amyloid nucleation score was “inactive”.
In the case of RSYRI, the amyloid nucleation score is reported as “inactive”.
With LRNSHGDDNVIRLVNNCNSV the amyloid nucleation score was “inactive”.
For RKRYFWNHAEISILKTSSSW, the amyloid nucleation score was “inactive”.
With LSGPMRYELCMRLGSGLNYE the amyloid nucleation score was “inactive”.
Work on SIFMCNIVLFKRVVLPRGAS yielded an amyloid nucleation score of 0.886 ± 0.18.
For FGICVDVGRAHIVKRSNRML, the amyloid nucleation score was “inactive”.
For KPMGYYLFDVTTELYDNDWF, the amyloid nucleation score was “inactive”.
SYYVICGTLMIIVVYFSSYN gave an amyloid nucleation score of 1.02 ± 0.093.
Work on KLTIRYLWYPLEQSGYRTCE yielded an amyloid nucleation score of 1.06 ± 0.2.
FRMNSLRVSLMESVCSSHT gave an amyloid nucleation score of 1.1 ± 0.11.
With HNLNLDGLMSKSSFTPMVLL the amyloid nucleation score was “inactive”.
MINVPSVSYTMSSVIYTSFK showed an amyloid nucleation score of 2.39 ± 0.055.
In the case of CFIVQWMLTLMCVFANCILT, the amyloid nucleation score is reported as “inactive”.
In the case of INEWFGSKDFAETGHLEVRY, the amyloid nucleation score is reported as “inactive”.
In the case of DLHVLSVK, the amyloid nucleation score is reported as “inactive”.
SNAKWGNISVGSRDYRTIRS gave an amyloid nucleation score of 1.48 ± 0.083.
For TVIMNLYAPP, the amyloid nucleation score was 2.51 ± 0.053.
In the case of GPGNMAMNVRAVKSGYHIAG, the amyloid nucleation score is reported as “inactive”.
With YKYGPARCRKRGDSCAKGGG the amyloid nucleation score was “inactive”.
In the case of SNGCKMYDKHVLYW, the amyloid nucleation score is reported as “inactive”.
In the case of AVCYRLWFKM, the amyloid nucleation score is reported as “inactive”.
In the case of AGPVF, the amyloid nucleation score is reported as “inactive”.
In the case of RRLQV, the amyloid nucleation score is reported as “inactive”.
